Laboratory results: the supplement of paper PMC10065799, “High-throughput profiling of sequence recognition by tyrosine kinases and SH2 domains using bacterial peptide display” (eLife, 2023)

Columns and labels:
SHP2-C SH2 = assay: SH2 binding enrichment of the phosphorylated peptide, bacterial display (enrichment ratio); higher = better substrate or ligand; peptides without Tyr show the background
c-Src SH2 = assay: as above
Grb2 SH2 = Grb2 SH2 (UniProt P62993); assay: as above
Fyn = Fyn (UniProt P06241); assay: phosphorylation enrichment, bacterial display (enrichment ratio); higher = better substrate or ligand; peptides without Tyr show the background
Fes = Fes (UniProt P07332); assay: as above
AncSZ = assay: as above
FGFR1 = FGFR1 (UniProt P11362); assay: as above
EPHB2 = EPHB2 (UniProt P29323); assay: as above
MERTK = MERTK (UniProt Q12866); assay: as above
FGFR3 = FGFR3 (UniProt P22607); assay: as above
Fer (mouse) = assay: as above
Jak2 = Jak2 (UniProt O60674); assay: as above
c-Abl (mouse) = assay: as above
EPHB1 = EPHB1 (UniProt P54762); assay: as above
Hck = Hck (UniProt P08631); assay: as above
c-Src = assay: as above
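Throughout, for SH2 binding enrichment of the phosphorylated peptide, bacterial display: peptide library displayed on the E. coli surface as eCPX fusions, selected cells deep-sequenced, score is each peptide's frequency after selection divided by its frequency in the input.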
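Throughout, for phosphorylation enrichment, bacterial display: 11-residue human phosphosite peptides and single-mutation variants displayed on the E. coli surface, counted by deep sequencing, each peptide's frequency after selection divided by its frequency in the unselected input library; frequency after pTyr selection over input frequency; kinase dosed for 20-30% of maximal phosphorylation in three min.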

FGFR3, sequence (P22607 whole entry, looked up): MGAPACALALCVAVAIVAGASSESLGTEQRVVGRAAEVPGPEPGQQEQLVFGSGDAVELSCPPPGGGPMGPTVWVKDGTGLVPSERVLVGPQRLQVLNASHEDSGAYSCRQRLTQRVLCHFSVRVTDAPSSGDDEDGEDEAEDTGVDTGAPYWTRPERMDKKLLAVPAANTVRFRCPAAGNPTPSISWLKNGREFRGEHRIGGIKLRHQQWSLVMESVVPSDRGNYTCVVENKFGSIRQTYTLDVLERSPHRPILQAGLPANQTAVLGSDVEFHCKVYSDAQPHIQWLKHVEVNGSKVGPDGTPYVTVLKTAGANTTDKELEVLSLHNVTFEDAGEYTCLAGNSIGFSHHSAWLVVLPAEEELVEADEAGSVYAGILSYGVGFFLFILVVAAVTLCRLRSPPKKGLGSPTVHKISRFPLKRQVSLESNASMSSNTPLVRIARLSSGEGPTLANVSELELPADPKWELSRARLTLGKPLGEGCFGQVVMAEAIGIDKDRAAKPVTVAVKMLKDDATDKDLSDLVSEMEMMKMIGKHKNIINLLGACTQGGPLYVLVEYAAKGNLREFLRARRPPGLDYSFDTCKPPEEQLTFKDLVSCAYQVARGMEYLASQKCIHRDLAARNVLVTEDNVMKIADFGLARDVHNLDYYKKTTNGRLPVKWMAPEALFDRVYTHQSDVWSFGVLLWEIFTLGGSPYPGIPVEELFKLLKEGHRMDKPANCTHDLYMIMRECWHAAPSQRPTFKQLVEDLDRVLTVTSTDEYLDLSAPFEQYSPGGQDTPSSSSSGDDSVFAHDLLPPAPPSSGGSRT
EPHB1, sequence (P54762 whole entry, looked up): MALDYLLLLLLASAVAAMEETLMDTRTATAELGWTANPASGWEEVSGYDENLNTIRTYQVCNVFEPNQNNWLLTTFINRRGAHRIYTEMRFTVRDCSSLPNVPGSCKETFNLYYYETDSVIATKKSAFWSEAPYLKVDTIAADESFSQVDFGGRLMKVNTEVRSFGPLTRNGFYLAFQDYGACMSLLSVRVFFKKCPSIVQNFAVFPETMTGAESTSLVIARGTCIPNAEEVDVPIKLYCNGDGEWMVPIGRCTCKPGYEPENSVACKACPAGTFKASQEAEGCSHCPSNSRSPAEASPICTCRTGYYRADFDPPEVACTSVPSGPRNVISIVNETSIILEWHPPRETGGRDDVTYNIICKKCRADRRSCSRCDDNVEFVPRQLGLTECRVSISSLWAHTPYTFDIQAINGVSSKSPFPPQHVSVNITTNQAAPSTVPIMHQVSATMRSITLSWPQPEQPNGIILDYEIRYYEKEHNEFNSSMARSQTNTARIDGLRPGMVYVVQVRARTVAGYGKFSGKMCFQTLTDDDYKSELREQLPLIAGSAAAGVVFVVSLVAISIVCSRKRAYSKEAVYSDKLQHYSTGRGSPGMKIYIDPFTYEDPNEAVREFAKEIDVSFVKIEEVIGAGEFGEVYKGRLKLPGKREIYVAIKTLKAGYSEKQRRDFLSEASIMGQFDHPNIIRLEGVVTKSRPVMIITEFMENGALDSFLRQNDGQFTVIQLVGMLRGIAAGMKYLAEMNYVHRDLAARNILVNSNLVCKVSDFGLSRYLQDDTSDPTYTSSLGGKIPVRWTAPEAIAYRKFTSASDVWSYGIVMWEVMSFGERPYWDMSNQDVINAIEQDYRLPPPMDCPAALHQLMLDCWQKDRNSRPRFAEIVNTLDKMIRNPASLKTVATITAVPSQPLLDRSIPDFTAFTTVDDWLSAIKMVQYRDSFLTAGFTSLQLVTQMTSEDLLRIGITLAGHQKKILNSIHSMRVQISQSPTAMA
EPHB2, sequence (P29323 whole entry, looked up): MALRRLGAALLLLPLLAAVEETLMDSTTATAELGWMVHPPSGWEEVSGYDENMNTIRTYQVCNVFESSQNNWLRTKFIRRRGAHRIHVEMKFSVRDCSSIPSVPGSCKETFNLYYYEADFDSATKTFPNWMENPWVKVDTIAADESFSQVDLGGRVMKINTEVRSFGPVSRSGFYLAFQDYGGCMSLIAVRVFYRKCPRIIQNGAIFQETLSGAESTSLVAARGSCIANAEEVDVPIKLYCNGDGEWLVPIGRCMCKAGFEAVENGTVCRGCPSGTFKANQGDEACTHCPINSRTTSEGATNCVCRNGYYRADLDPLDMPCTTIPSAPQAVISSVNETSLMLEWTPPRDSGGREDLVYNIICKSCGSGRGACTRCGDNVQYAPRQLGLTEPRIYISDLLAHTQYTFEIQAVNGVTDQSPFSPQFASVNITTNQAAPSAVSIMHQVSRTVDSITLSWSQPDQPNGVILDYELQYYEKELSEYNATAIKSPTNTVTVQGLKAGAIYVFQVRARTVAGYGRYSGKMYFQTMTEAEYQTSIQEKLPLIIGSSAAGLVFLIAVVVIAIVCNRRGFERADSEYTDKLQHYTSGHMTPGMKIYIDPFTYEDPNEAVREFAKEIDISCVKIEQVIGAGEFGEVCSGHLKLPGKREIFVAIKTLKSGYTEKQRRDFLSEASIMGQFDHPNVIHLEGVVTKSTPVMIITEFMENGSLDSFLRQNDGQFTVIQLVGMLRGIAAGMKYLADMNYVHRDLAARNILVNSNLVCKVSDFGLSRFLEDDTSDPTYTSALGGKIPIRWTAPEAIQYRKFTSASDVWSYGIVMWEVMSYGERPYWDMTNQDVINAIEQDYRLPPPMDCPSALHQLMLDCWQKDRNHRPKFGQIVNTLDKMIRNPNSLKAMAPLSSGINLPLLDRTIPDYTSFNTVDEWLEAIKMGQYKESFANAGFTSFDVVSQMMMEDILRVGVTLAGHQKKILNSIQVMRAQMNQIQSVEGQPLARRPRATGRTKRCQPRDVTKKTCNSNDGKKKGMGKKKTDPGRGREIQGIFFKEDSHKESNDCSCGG
MERTK, sequence (Q12866 whole entry, looked up): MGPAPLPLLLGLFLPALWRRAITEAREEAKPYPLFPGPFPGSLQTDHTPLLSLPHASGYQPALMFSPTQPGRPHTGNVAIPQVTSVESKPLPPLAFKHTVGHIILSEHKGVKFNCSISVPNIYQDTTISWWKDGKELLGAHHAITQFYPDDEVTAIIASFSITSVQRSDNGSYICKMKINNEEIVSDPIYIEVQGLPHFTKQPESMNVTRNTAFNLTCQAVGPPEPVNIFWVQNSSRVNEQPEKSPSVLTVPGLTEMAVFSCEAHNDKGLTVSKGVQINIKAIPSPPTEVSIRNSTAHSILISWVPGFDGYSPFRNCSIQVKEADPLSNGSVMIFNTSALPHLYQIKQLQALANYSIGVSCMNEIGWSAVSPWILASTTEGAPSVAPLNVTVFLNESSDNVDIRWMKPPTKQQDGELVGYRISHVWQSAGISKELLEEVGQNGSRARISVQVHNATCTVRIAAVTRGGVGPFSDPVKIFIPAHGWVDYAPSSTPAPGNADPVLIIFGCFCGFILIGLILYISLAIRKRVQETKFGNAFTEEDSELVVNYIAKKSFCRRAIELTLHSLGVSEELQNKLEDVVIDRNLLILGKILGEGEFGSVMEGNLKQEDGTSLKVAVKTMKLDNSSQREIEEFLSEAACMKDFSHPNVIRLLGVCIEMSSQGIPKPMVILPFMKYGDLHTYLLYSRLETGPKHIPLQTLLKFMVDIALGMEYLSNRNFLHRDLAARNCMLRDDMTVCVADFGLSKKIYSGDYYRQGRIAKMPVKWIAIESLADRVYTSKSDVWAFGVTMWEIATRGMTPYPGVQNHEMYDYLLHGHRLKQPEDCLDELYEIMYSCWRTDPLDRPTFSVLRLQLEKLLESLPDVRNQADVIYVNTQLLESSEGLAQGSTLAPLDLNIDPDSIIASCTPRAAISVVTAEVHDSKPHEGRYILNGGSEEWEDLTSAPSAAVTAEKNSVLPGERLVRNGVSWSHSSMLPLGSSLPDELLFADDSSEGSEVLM
FGFR1, sequence (P11362 whole entry, looked up): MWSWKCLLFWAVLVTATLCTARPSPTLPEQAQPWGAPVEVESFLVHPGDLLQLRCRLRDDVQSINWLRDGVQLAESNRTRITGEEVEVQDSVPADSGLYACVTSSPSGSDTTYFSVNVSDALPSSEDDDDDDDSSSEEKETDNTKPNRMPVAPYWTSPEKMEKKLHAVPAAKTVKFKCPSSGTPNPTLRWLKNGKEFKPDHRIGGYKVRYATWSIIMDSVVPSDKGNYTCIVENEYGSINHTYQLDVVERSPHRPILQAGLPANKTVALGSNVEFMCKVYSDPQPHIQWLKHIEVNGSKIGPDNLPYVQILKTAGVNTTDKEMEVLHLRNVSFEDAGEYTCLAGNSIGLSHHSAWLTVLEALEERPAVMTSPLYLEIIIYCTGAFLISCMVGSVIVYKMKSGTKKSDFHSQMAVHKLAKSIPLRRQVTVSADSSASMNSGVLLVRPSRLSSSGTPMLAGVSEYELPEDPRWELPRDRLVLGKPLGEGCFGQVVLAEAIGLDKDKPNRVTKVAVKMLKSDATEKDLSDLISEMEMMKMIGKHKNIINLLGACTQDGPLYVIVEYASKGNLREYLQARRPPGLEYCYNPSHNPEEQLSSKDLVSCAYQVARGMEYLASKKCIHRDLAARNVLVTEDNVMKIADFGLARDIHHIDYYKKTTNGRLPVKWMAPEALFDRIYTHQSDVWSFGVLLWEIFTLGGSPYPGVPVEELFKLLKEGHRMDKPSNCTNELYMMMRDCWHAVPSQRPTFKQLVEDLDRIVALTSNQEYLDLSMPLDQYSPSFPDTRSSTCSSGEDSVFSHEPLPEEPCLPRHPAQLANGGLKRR
Grb2 SH2, sequence (P62993 whole entry, looked up): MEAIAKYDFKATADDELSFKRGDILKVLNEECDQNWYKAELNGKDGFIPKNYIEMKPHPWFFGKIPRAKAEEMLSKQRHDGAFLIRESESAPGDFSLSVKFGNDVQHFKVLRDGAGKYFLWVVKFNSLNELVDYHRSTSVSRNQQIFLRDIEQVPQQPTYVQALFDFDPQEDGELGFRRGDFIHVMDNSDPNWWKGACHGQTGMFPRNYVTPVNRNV

Sequence | SH2 binding enrichment (SHP2-C SH2) | SH2 binding enrichment (c-Src SH2) | SH2 binding enrichment (Grb2 SH2) | phosphorylation enrichment (Fyn) | phosphorylation enrichment (Fes) | phosphorylation enrichment (AncSZ) | phosphorylation enrichment (FGFR1) | phosphorylation enrichment (EPHB2) | phosphorylation enrichment (MERTK) | phosphorylation enrichment (FGFR3) | phosphorylation enrichment (Fer (mouse)) | phosphorylation enrichment (Jak2) | phosphorylation enrichment (c-Abl (mouse)) | phosphorylation enrichment (EPHB1) | phosphorylation enrichment (Hck) | phosphorylation enrichment (c-Src)
DGYTDYAEFAK [MCFD2_Y138_I136T] | 0.592 | 1.22 | 0.651 | 0.96 | 0.844 | 1.03 | 0.754 | 0.706 | 0.463 | 0.699 | 0.4 | 0.765 | 0.734 | 0.829 | 0.74 | 0.942
LQLLGHRPVYS [CHST6_Y358_Y358H] | 0.935 | 0.733 | 1.22 | 0.535 | 0.701 | 0.615 | 0.425 | 0.47 | 0.374 | 0.506 | 0.479 | 0.552 | 0.418 | 0.462 | 0.512 | 0.381
IVLRSYPASGH [NID2_Y449] | 0.831 | 0.533 | 0.716 | 0.481 | 0.817 | 0.726 | 0.392 | 0.451 | 0.493 | 0.596 | 0.479 | 0.682 | 0.511 | 0.532 | 0.415 | 0.415
QDIMAYRGREV [BCL6_Y157] | 0.729 | 0.447 | 0.769 | 0.632 | 1.04 | 1.1 | 0.565 | 0.553 | 0.599 | 0.717 | 0.616 | 0.937 | 0.536 | 0.52 | 0.448 | 0.531
LCHELYNTIRD [PBRM1_Y54_V49L] | 1.04 | 4 | 1.21 | 1 | 1.03 | 1.21 | 0.973 | 0.785 | 0.796 | 0.905 | 0.869 | 2.44 | 0.929 | 0.675 | 6.12 | 3.39
KIEGVYARDET [RPL35A_Y34] | 0.705 | 0.542 | 0.671 | 0.555 | 0.878 | 0.784 | 0.437 | 0.612 | 0.386 | 0.55 | 0.387 | 0.681 | 0.633 | 0.515 | 0.586 | 0.56
CNRADYSKLAP [GNE_Y22] | 0.622 | 1.18 | 0.793 | 0.458 | 0.844 | 0.749 | 0.472 | 0.607 | 0.609 | 0.61 | 0.485 | 0.621 | 0.556 | 0.613 | 0.459 | 0.412
GGSTFYIDTNA [ACTL6A_Y69_P66S_YF] | 0.952 | 0.562 | 0.735 | 0.4 | 0.987 | 0.923 | 0.528 | 0.48 | 0.477 | 0.651 | 0.475 | 1.01 | 0.734 | 0.523 | 0.461 | 0.39
ADAGMYGVLPW [PLP1_Y207_R205G] | 0.74 | 0.435 | 0.726 | 9.65 | 0.845 | 0.803 | 0.549 | 6.53 | 6.35 | 0.529 | 2.39 | 0.637 | 3.07 | 1.76 | 9.1 | 6.61
WEQELYSQLVF [WAS_Y102_YF] | 0.818 | 0.688 | 0.876 | 8.54 | 2.71 | 2.24 | 4.85 | 11.6 | 8.62 | 4.51 | 14.4 | 1.38 | 1.81 | 8.61 | 7.88 | 6.47
VSTAVYKRFAS [BEST1_Y148_P152A] | 0.681 | 0.49 | 0.644 | 0.449 | 0.77 | 0.715 | 0.507 | 0.647 | 0.489 | 0.48 | 0.398 | 0.725 | 0.716 | 0.693 | 0.511 | 0.555
QFLMKYVWSAS [ABCD1_Y337] | 0.668 | 0.499 | 0.677 | 0.3 | 1.49 | 1.15 | 0.513 | 0.541 | 0.528 | 0.759 | 0.565 | 1.42 | 0.929 | 0.582 | 0.587 | 0.559
ASMAKYFASGI [ACADSB_Y372_E376G_YF] | 0.86 | 0.445 | 1.01 | 0.386 | 0.79 | 0.544 | 0.424 | 0.517 | 0.407 | 0.441 | 0.374 | 0.566 | 0.574 | 0.339 | 0.404 | 0.386
TQPSPYAVFRF [RPGRIP1_Y823_YF] | 1.1 | 0.696 | 1 | 10.7 | 0.805 | 0.952 | 0.893 | 0.922 | 9.69 | 0.8 | 9.31 | 0.824 | 24.8 | 2.6 | 8.6 | 7.72
RVVVPYEPPEV [TP53_Y220_S215R] | 0.925 | 1.03 | 0.836 | 0.554 | 0.99 | 1.01 | 0.631 | 0.505 | 0.468 | 0.657 | 0.409 | 0.892 | 0.613 | 0.523 | 0.454 | 0.36
QPGDICHQTWA [GBA_Y244_Y244C] | 0.603 | 0.732 | 0.776 | 0.478 | 1.08 | 0.796 | 0.507 | 0.45 | 0.306 | 0.608 | 0.462 | 0.906 | 0.741 | 0.515 | 0.337 | 0.369
RLLVVYHWTQR [HBD_Y36_P37H] | 1.27 | 1.27 | 1.49 | 0.46 | 1.58 | 1.42 | 0.458 | 0.514 | 0.666 | 0.75 | 0.659 | 1.17 | 1.32 | 0.785 | 0.85 | 0.566
PRLMLYNPTTF [EGFR_Y270_P266R_YF] | 0.631 | 0.505 | 0.968 | 0.748 | 1.18 | 1.16 | 0.772 | 0.811 | 0.703 | 1.04 | 0.848 | 1.38 | 1.12 | 0.763 | 0.618 | 0.729
FEKNVYVDKNL [PTCHD3_Y688] | 0.543 | 0.542 | 0.962 | 0.405 | 0.894 | 0.615 | 0.419 | 0.406 | 0.411 | 0.461 | 0.437 | 0.732 | 0.616 | 0.36 | 0.505 | 0.446
LNYNEYFRDLN [HPRT1_Y198_D194N] | 0.672 | 0.443 | 0.985 | 0.996 | 1.6 | 1.82 | 1.29 | 1.12 | 0.559 | 1.38 | 0.878 | 1.57 | 1.01 | 1.4 | 0.879 | 0.518
TVDASYFGGRG [ANTXR2_Y380_YF] | 0.513 | 0.474 | 1.01 | 0.403 | 0.567 | 0.569 | 0.372 | 0.337 | 0.438 | 0.394 | 0.312 | 0.677 | 0.519 | 0.333 | 0.425 | 0.413
LRYDVYGGENE [STOX1_Y610_E608D] | 0.675 | 0.875 | 0.925 | 1.48 | 3.02 | 2.74 | 1.09 | 1.57 | 1.18 | 1.29 | 1.03 | 2.78 | 2.15 | 1.82 | 1.41 | 1.94
PLEGEYFTLQI [TP53_Y327_D324E] | 0.651 | 0.493 | 0.347 | 9.83 | 3 | 6.22 | 18.5 | 5.04 | 0.967 | 15.5 | 3.01 | 5.5 | 2.98 | 4.24 | 4.86 | 7.65
KAPVDYIRKLQ [MITF_Y360_S357P] | 0.621 | 0.489 | 0.912 | 0.338 | 0.616 | 0.547 | 0.328 | 0.436 | 0.399 | 0.423 | 0.365 | 0.576 | 0.475 | 0.416 | 0.346 | 0.406
ADARMYGDLPW [PLP1_Y207_V209D] | 1.09 | 0.573 | 0.868 | 3.54 | 0.794 | 0.766 | 0.6 | 0.506 | 0.52 | 0.7 | 1.43 | 0.71 | 0.586 | 0.65 | 3.49 | 2.74
ARSMEYLAEQK [MST1R_Y1198] | 0.611 | 0.384 | 0.819 | 0.585 | 0.839 | 0.755 | 0.471 | 0.493 | 0.548 | 0.622 | 0.403 | 1.08 | 0.655 | 0.488 | 0.622 | 0.474
SLFPGYNFRFA [P2RX7_Y291_YF] | 0.962 | 0.819 | 1.24 | 0.472 | 0.953 | 0.844 | 0.433 | 0.46 | 0.475 | 0.736 | 0.511 | 0.673 | 0.508 | 0.614 | 0.476 | 0.502
YKTPIYPYLLP [PLD2_Y578_T577I] | 1.04 | 2.4 | 0.953 | 0.787 | 0.857 | 1.14 | 2.43 | 0.744 | 2.08 | 1.53 | 0.695 | 1.51 | 0.899 | 0.816 | 0.628 | 0.707
QRKPSYNQLAS [BRCA2_Y71] | 1.14 | 1.06 | 1.59 | 0.399 | 0.53 | 0.449 | 0.543 | 0.53 | 0.392 | 0.642 | 0.244 | 0.598 | 0.471 | 0.344 | 0.345 | 0.415
